We go through 23 sequences from a protein production outcome set (Wang et al. 2014).

The nature of the data set: label from the status in PepcDB records.
Take “MEVHYMTKIKEIKKVLQQEDADAAWITTPLNIFYFTGYRSEPHERLFALLIPSNEEPVLFCPKMEVEEVKQSPFKGKIIGYLDTENPFDKYSKTFSKMLIESEHLTVKRQRELTKAFNIEHYQDVDQSIKDLRNIK”: the protein production result is listed as “failed”.

As to “MYRHDVSNEEKDIAVSVIALTAAFAIANRFRSPYGPFFILAVSFLVAVTAFLMHELAHRYVARSYGGIAYFKMWPLGLLLALITSLLGFIFAAPGAVNIGGIYRRDQIGKTSLAGPAMNIFLGILFYAISLFTLIPVAIAIFRYVAEMNFWFGFFNLLPIPPLDGYKVFSWDLYVYIVSVVIALVFVVLFVF”, the protein production entry was “failed”.

On to “MSSNECFKCGRSGHWARECPTGGGRGRGMRSRGRGFQFVSSSLPDICYRCGESGHLAKDCDLQEDACYNCGRGGHIAKDCKEPKREREQCCYNCGKPGHLARDCDHADEQKCYSCGEFGHIQKDCTKVKCYRCGETGHVAINCSKTSEVNCYRCGESGHLARECTIEATA”, for which the protein production result was “failed”.

“MEKVKKIVLIGASGFVGSALLNEALNRGFEVTAVVRHPEKIKIENEHLKVKKADVSSLDEVCEVCKGADAVISAFNPGWNNPDIYDETIKVYLTIIDGVKKAGVNRFLMVGGAGSLFIAPGLRLMDSGEVPENILPGVKALGEFYLNFLMKEKEIDWVFFSPAADMRPGVRTGRYRLGKDDMIVDIVGNSHISVEDYAAAMIDELEHPKHHQERFTIGYLEHHHHHH”: the protein production result was “failed”.

As to “LKCSTVVCVICLEKPKYRCPACRVPYCSVVCFRKHKEQCNPET”, the protein production result was “not failed”.

As to “MDFPTISRSPSGPPAMDLEGPRDILVPSEDLTPDSQWDPMPGGPGSLSRMELDESSLQELVQQFEALPGDLVGPSPGGAPCPLHIATGHGLASQEIADAHGLLSAEAGRDDLLGLLHCEECPPSQTGPEEPLEPAPRLLQPPEDPDEDSDSPEWVEGASAEQEGSRSSSSSPEPWLETVPLVTPEEPPAGAQSPETLASYPAPQEVPGPCDHEDLLDGVIFGARYLGSTQLVSERNPPTSTRMAQAREAMDRVKAPDGETQPMTEVDLFVSTKRIKVLTADSQEAMMDHALHTISYTADIGCVLVLMARRRLARRPAPQDHGRRLYKMLCHVFYAEDAQLIAQAIGQAFAAAYSQFLRESGIDPSQVGVHPSPGACHLHNGDLDHFSNSDNCREVHLEKRRGEGLGVALVESGWGSLLPTAVIANLLHGGPAERSGALSIGDRLTAINGTSLVGLPLAACQAAVRETKSQTSVTLSIVHCPPVTTAIIHRPHAREQLGFCVEDGIICSLLRGGIAERGGIRVGHRIIEINGQSVVATPHARIIELLTEAYGEVHIKTMPAATYRLLTGQEQPVYL”, the protein production result is recorded as “not failed”.

As for “MAKALEQPFDVANIPGPKMATLLEKGKPVANMIKKAKRPLLIVGPDMTDEMFERVKKFVEKDITVVATGSAITRFIDAGLGEKVNYAVLHELTQFLLDPDWKGFDGQGNYDLVLMLGSIYYHGSQMLAAIKNFAPHIRALAIDRYYHPNADMSFGNLWKKEEDYLKLLDEILAEL”, the protein production entry was “not failed”.

For the sequence “DARKGNASAPVVAVEFFDYQCGYCKGALPELAAALSGRNDVAVVMKEFPILGSTSEAAARLALAVRAEHGDEAYLGFHNALLSHKGGLNEAALSILAGAAGYDYPALVARGRQDDITSIIDGNRRLAQALSISGTPAFVFRDGEVVPGMMAADRLTAAFDRLSASTAAAQ”, the protein production result is reported as “failed”.

Consider “EENPRGRFAITLPHSLESNVVMPAIEQLCIEYPGIEPEIIVSDSSLDLVENNLDVAIHAGDLPDSSYRALPIGTITEIFCATPLYLNKNFTPQKLSDLAQLKWI”, for which the protein production result is given as “failed”.

In the case of “MFNKRLKQQLATLSDELNALQQFKACLESQVLNLELDGEGAIRRANQNFIQALELDGQPLAGVALESIISRHPQAVPLYREFKAALGRNESYTGQLRLQRGGGREAWLQVCVQPIRDGAGRLDHYNLICTDQS”, the protein production entry is reported as “failed”.

Take “MRHTLPIAPQFYVTAPQSCPYLEGRLERKLFTALQGEHAQKLNDTLSKQGFRRSQNVLYRPSCAECSACLSARIRVADFEPTRTQRRVMKRNADLRRNATSPWATEDQYALFRRYLDDRHADGGMADMDIFEFAAMIEETPIRSRVIEYSRPGDTPSNRPLSAVCLTDIFDDGLSMVYSFYDPDLAGRSLGAYVILDHIEIAREAGLPYVYLGYWVPGSRKMGYKATYSALEIYKGGRWQAIGQPSDHRAELHPLSVDPIAEQVARISLPEARSGDRSRDLEHHHHHH”: the protein production result is “not failed”.

Turning to “MATFEEVSVLGFEEFDKAVKEHESKTIFAYFSGSKDTEGKSWCPDCVEAEPVIREGLKHVTEDCVFIYCQVGDKPYWKDPNNDFRQKLKITAVPTLLKYGTPQKLVESECCQSSLVEMIFSED”, the protein production entry is “not failed”.

For “MMWNLIKNEFIKLRYKRKYIICTIVFALICIGFCAVYVKMQKASTPDAAIQYYKDAKSSLQSKEKNIKDATLKQQYDQQISQLDEQIKQYQQSKNQGNSNWKKQLKNTIDSLKDEKNQAADITENTAKESYNKQIVFYQYLLNHNIKPQDNNSLSTFQLLQSLLKLIGYILIPIIIAIFSADIVSGEYTPPTIKVLLSKPASRAKILASKFIASAISCIAIILLIELITYLITGIAYGFDNPSYPVLVGTKYMNSGIKLTQDSTGLIPILGSSYVIPLWQFLIEMFLFQILFIIGCCSFFLLLSVVLRSSVLSMTLSIMIVIALNIISQISALHVIMPFLFTNYGSPYDILTNSIPSTSGLTFTTAIFGVIYLIIFTILCYGIANYSFKKKDMTV”, the protein production entry is “failed”.

Take “MTPHATPAPRVSAIVSLYNAERFVRGCLDDLLGQTLADSLEIIVIDACSPQGEGAIVQDYMRDHPNIVYVRTDEREGVYASWNRGVRLARAPYVTNANADDRHREDALERLAAALDEAPEAGFAYGDCRVGQTENERYADNAGQRVMRFPDFFAPATLLYCQLGPQPLWRRSVHDVVGFFDESYRACADWDFDIRLAAAFRGIHVPDALGLYLEHEAAITFRDDTMTRENDRVQRQWQHPEAVEERYRAAGVPCHTAEERALVHFDMALRALRFYPPWCYGAPAHNPGFARRCLRHALRLAPALAPAKELLALPDAVLTALDDLPSPLGLPSQATLAGVAAPLEHHHHHH”: the protein production result is recorded as “failed”.

Regarding “MYADEQFKQVFQCIRCAACLNVCPAFQLVGGHVYGHIYTGGIGTILTAFLNSEKDAENPQNLCLQCGKCTEVCAGKLDIPGMILEIRNRIGDQKGLPMTPLEHHHHHH”, the protein production result is “failed”.

Consider “MVLLTMTKRLFKGLLAVSLAVSLHGGEVKEKKPVKPVKEDPQELAAKRVEAFSRFSNVVSEIEKKYVDKISISEIMTKAIEGLLSNLDAHSAYLNEKKFKEFQAQTEGEFGGLGITVGMRDGVLTVIAPLEGTPAYKAGVKSGDNILKINNESTLSMSIDDAINLMRGKPKTPIQITVVRKNEPKPLVFNIIRDIIKLPSVYVKKIKETPYLYVRVSGFDKNVTKSVLEGLKANPKAKGIVLDLRGNPGGLLNQAVGLSNLFIKEGVLVSQKGKNKEENLEYKANGRAPYTNLPIAVLVNGGSASASEIVAGALQDHKRAVIIGEKTFGKGSVQMLLPVNKDEAIKITTARYYLPSGRTIQAKGITPDIVIYPGKVPENENKFSLKEADLKHHLEQELKKIDDKTPNSKEADKDKKNEEEKEITPKMINDDIQLKTAIDSLKTWSIVDEKMDEKAPKKK”, for which the protein production result is “failed”.

For “MDEADSGGIVTARNVDLSSCDRELVQYPEAIQPHGAMLTVDEQSDRVLHASANCAAFIGKPPEAVIGAPIAAVLGAGWHELLGSLHRMPLDSGPVNIARESFLGSDQGWHLFAHRCGGLIILEFEKAEPEAAGTTSNLYSEVRADLAALQATEGVQAFFDLAVERIRAFTGYDRVMAYRFAEDGSGQVIAEARRDDLEPYLGLHYPATDIPAPARRLFALSWVRHLPDVGYTPVPLLAAKSPLVTGPVDMSFASLRSVSVMYTGYLKNMGVQSTLVMPLVKEGRLWGLISAMHHAAPRHISHQMRMAAEFLAHTLSLLMSAKEDAEQFERSSARKAAAEALTRLLDSEADIGAALHAAGALDLLSALIDAGGVVVQTGDEVATRGEAPAAAPLHELTSWLRERARPVFATDRLPNLDPAAQAVASQASGVLALRPLPDQPMLIAWLRPEQIEDVQWAGDPRKPVEISDADGMQRLRPRNSFALWKESVQGRAVPWRDDEKDAATRLAAAIAEIAAARKGRIERINRALDASHSELSRYTDVASAELKEHLRGIHHLTTSLRRRQGEVLDEEGRQQVATILKLTQRMDALVDALLDRSRGGSEAASETVDLEAVVDDALAPFARRIAEDRIEVRRPMRLGTAQGHREWIGEVFTNLIGNAIRYNDKPERWIEIGVEAGSPPRYYVRDNGIGIADTDQQLVFQMFHRVDQSEQKAEGAGVGLAMTRRIVAHHGGRIWVQSRLGEGATFYFTLAPDEERHDA”, the protein production entry is listed as “failed”.

“MEQDASAKNPDIETENKGAISEEEALIQREYSLLIQDYLNSNHRRKVEKIDKAFHLAKDAHAGAKRRSGEPYILHPIAVARIVCQEIGLGSTSICCALLHDVVEDTEYTVEDMRDMFGDKVAQIVDGLTKISGEVFSNSSAQAENFRKLILTMNDDIRVILIKIADRLHNMRTLDSMLPAKQMKIAGETQYVYAPLAHRLGLFAIKSELEDLSFKYEHPQEYEAIKEKIRITEQHRLEMFEHFAAPLKQRFAGMDMSYEMKARVKSVYSIWKKMEKKGVPFEEIYDLFAVRIIFESSPTIPDKNRCWEIYSAITDIYRNRPDRIRDWVSNPKSNGYQALHLTVMGPDGEWVEVQIRSRRMDDIAEKGFAAHWKYKGDNVEEDSELEKWLSTIQEILENPNPNALDFLDTIKLNLFSNEVMVFTPKGEIKRLPQGATALDFAYSLHSDLGDHCIGAKVNHKLVPLSYVLNSGDQVEVLSSKSQQPTEEWLRYVTTARAKSKVDTFLRRKRRELINRGEERVVSVIRTSESMVSAELLDRIAAYFGFLNRETFFYAVGTGTVSLPESFKKLLQGEHSGNFLMRAIRSALKAGKSNKTSSPSGKPAEKEDKKAYNTKKTYILQEDEFSRNYQIAECCKPIPGDDAFGFINDDNTVVVHKRSCPIAMRLKSSFGNRILSTEWSLHSRTSFEAKLALKGIDSTGILTAVTQVISEDFNVGIKHIQLTAKDGIFEGQIHLLVHSSDDLLKICHQLRQNKYIQSVGRIS”: the protein production result is “failed”.

As to “MVFCRGCAKEISDDAGTCPHCGAPQLIISSASANKEAPASGNWYFEVLKKYAVFTGRARRKEYWMFFLFNVLISIVIGVIGGLVGDGGILANLYSLAVLVPGIAVGVRRLHDTDRSGWWLLVPIANLVFLVQEGHAGPNRFGPSPK”, the protein production result was “failed”.

As to “MVPCWNHGNITRSKAEELLSRTGKDGSFLVRASESISRAYALCVLYRNCVYTYRILPNEDDKFTVQASEGVSMRFFTKLDQLIEFYKKENMGLVTHLQYPVPLEEEDTGDDPEEDTVESVVSPPELPPRNIPLTASSCEAKEVPFSNENPRATETSRPSLSETLFQRLQSMDTSGLPEEHLKAIQDYLSTQLAQDSEFVKTGSSSLPHLKKLTTLLCKELYGEVIRTLPSLESLQRLFDQQLSPGLRPRPQVKG”, the protein production entry is on record as “not failed”.

For “MKKIEIFDPAMCCSTGVCGPSVDPELIRISVAVNNLKNKGIDVTRYNLASEPDAFANNGVISQLLTDKGPDVLPVTLVDGKVVKEKSHLTNEELTQLTDITEEELSQKPVVRLKLNVKK”, the protein production result was “not failed”.

For the sequence “IKSISKDYFDYLQTESKFIPLENETIEFYSPIVDYFGDSISVNISFSGDRYKLTDHGETLWNMEQLGIDLTSNKKQKKYQLLNNIVQNYSLVIENKHINFYTNRINLSQAIHDYVLAISEISYLGILKKENIKSLFKDEVMQYFLSNRKIYPNIFPEFKVEGKSKLIHSFEAVFPGEATEYVKTIKRIDKNNAKNVLFDWNDVEIHRNKNFDSNARLNIITEQQDDISEAVSTMLSQYNVEVFSFENKKQLEEKF”, the protein production result is “failed”.

As for “MTAIPRAPLILGLAGLIPFLWGALTYLSPAAQAWGAAALGPRFVGPYVQIAYGQIILAFMSGVLWGFATKADDRRAATGYVLAVLPALWAFFMTGGGPTGAAINLIFGFLGLLMLDAAFASWGLAPVWWMRLRLLLTAVVTICLAVGAFL”, the protein production entry is recorded as “failed”.
